Consider 1 molecule from paper PMC5391116 (PLoS ONE, 2017).

In the assay the target is Human MET ECD (extracellular domain) containing a FLIS tag (Homo sapiens, UniProt P08581). Briefly: cell-based or functional assay.
Sequence of Human MET ECD (extracellular domain) containing a FLIS tag (P08581 25-932): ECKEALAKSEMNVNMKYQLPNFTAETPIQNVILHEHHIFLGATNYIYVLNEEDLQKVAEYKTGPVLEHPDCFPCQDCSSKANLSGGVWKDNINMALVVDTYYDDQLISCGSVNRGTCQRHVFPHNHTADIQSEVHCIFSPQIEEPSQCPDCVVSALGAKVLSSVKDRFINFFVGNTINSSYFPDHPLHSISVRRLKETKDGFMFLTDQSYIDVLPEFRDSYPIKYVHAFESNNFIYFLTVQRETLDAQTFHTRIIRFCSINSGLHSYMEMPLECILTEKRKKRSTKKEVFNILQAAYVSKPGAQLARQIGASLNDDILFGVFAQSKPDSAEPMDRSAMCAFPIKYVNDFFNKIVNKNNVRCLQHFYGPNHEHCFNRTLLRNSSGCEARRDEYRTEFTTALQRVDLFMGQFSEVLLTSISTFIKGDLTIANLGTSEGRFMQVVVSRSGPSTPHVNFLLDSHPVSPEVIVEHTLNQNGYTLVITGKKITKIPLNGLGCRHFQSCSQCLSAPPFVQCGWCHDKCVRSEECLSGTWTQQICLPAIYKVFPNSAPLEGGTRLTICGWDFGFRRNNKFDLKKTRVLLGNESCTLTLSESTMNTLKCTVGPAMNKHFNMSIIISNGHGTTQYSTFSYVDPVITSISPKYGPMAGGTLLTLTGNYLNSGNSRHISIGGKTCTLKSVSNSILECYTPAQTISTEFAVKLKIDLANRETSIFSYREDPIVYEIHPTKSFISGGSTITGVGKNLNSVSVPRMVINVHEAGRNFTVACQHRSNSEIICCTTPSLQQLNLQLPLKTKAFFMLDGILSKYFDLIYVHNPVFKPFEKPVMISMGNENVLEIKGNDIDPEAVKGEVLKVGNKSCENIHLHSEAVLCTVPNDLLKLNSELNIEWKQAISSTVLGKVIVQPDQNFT

B1: IgG1 MET antibody (variable regions from LY2875358 on human IgG1 constant regions) (antibody, V domains shown)
VH: QVQLVQSGAEVKKPGASVKVSCKASGYTFTDYYMHWVRQAPGQGLEWMGRVNPNRRGTTYNQKFEGRVTMTTDTSTSTAYMELRSLRSDDTAVYYCARANWLDYWGQGTTVTVSS
VL: DIQMTQSPSSLSASVGDRVTITCSVSSSVSSIYLHWYQQKPGKAPKLLIYSTSNLASGVPSRFSGSGSGTDFTLTISSLQPEDFATYYCQVYSGYPLTFGGGTKVEIK
For B1, the “phospho-AKT activity levels in Caki-1 cells (MSD ELISA), various doses of antibody for 15 minutes” value was more than 8 fold.
